Assay results as given in patent US12459987B2, “Monoclonal antibodies for prevention and treatment of herpes simplex viral infections” (priority 2019, dated 2025).
Residue numbers refer to the chain shown, from its start.

B1: HSV010-16: gB-1 specific mouse monoclonal IgG; IgH SEQ ID NO: 76, IgL SEQ ID NO: 78 (antibody, V domains shown)
VH: QIQLVQSGPELKKPGETVKISCKASGYTFTTYGMSWVKQAPGKDLKWMGWINTYSGVSTYGDDFKGRFALSLETSASTAYLQINNLKNEDTATYFCAQLNYGMDYWGQGTSVTVSSA
VL: DIVMTQSHKFMSTSVGDRVSITCKASQDVSTSLAWYQQKPGQSPKLLIYSASYRYTGVPDRFTGSGSGTDFTFTISSVQAEDLAVYYCHQHYSIPRTFGGGTKLEIKR
modifications: HSV010-16 heavy chain; HSV010-16 light chain
B2: HSV010-20: gB-1 specific mouse monoclonal IgG; IgH SEQ ID NO: 64, IgL SEQ ID NO: 66 (antibody, V domains shown)
VH: DVQLQESGPGMVRPSQSLSLTCTVTGYSITSGYDWHWIRHFPGNKLEWMGYISYSGLTNYNPSLRSRFSITHDTSKNHFFLKLNSVTTEDTATYYCARGPPWYFDVWGTGTTVTVSSA
VL: DIVMTQSQKFMSTSVGGRVSITCKASQIVRATVAWYQQKPGQSPKPLIYLASNRHTGVPDRFTGSGSGTDFTLTISNVQSEDLADYFCLQYWNYPYTFGGGTKLEIKR
modifications: HSV010-20 heavy chain; HSV010-20 light chain
B3: HSV010-4: gB-1 specific mouse monoclonal IgG; IgH SEQ ID NO: 32, IgL SEQ ID NO: 34 (antibody, V domains shown)
VH: QVQLKESGPGLVAPSQSLSITCTVSGFSLSRHDVSWVRQPPGKGLEWLGVIWGDGSTNYHSALISRLSISKDNSKSQVFLKLNSLQNDDTATYYCAKEDYGIFPYWGQGTLVTVSAA
VL: DIKMTQSPSSMYASLGEKVTITCKASQDISSYLSWFQQKPGKSPKTLIYRANRLVDGVPSRFSGSGSGQDYSLSISSLDYEDMGIYYCLQYDEFPLTFGAGTKLELKR
modifications: HSV010-4 heavy chain; HSV010-4 light chain
B4: HSV010-8: gB-1 specific mouse monoclonal IgG; IgH SEQ ID NO: 68, IgL SEQ ID NO: 70 (antibody, V domains shown)
VH: B3 VH with S30N, R31N, H32Y, N87T
VL: B3 VL with K18R, S30N, S74T, D79E, D82N
modifications: HSV010-8 heavy chain; HSV010-8 light chain
B5: HSV010-7: gB-1 specific mouse monoclonal IgG; IgH SEQ ID NO: 36, IgL SEQ ID NO: 38 (antibody, V domains shown)
VH: QVQLQQSGPELVKPGASVKLSCKASGYTFTNYDINWVKQRPGQGLEWIGWIYPRDGSTKYNEKFKGKATLTIDTSSSTAYMELHSLTSEDSAVYFCARGIFYVNYDVYWGQGTLVTVSAA
VL: DIQMTQSSSFLSVSLGGRVTITCKASDHINNWLAWYQQKPGHAPRLLISGAASLETGVPSRFSGSGSGKDYTLTITSLQTEDVATYYCQQYWSSPLTFGGGTKLELKR
modifications: HSV010-7 heavy chain; HSV010-7 light chain
B6: HSV010-9: gB-1 specific mouse monoclonal IgG; IgH SEQ ID NO: 48, IgL SEQ ID NO: 50 (antibody, V domains shown)
VH: QVQLQQPGAELVKPGASVKLSCKSSGYTFTSYWMHWVKQRPGQGLEWIGMIHPNSGITHYNEKFKTKATLTVDKSSSTAYMQLSSLTSEDSAVSYCARGSNSGSAWFAYWGQGTLVTVSAA
VL: B5 VL with F10Y, H42N, A52T, T74S, S94T, G100A
modifications: HSV010-9 heavy chain; HSV010-9 light chain
B7: HSV010-15: gB-1 specific mouse monoclonal IgG; IgH SEQ ID NO: 72, IgL SEQ ID NO: 74 (antibody, V domains shown)
VH: B6 VH with S24A, M34I, K38Q, H59N, N61S, T66S, V72L, S84I, S94Y, N101S
VL: B5 VL with F10Y, A34P, H42N, A52T, T74S, G100A
modifications: HSV010-15 heavy chain; HSV010-15 light chain
B8: HSV010-6: gB-1 specific mouse monoclonal IgG; IgH SEQ ID NO: 44, IgL SEQ ID NO: 46 (antibody, V domains shown)
VH: B6 VH with S24A, S31N, M34I, S55I, N61S, K63R, T66S, S77T, S94Y, N101D
VL: B5 VL with F10Y, Q37L, H42N, I48M, A52T, T74S, S94T, G100A
modifications: HSV010-6 heavy chain; HSV010-6 light chain
B9: HSV010-34: gB-1 specific mouse monoclonal IgG; IgH SEQ ID NO: 40, IgL SEQ ID NO: 42 (antibody, V domains shown)
VH: EVQLVESGGGLVQPGESLKLSCESNEYEFPSHDMSWVRKTPEKRLELVAAINSDGGSTYYPDTMERRFIISRDNTKKTLYLQMSSLRSEDTALYYCARHSSGYVLDYWGQGTSVTVSSA
VL: B5 VL with F10Y, N31H, H42N, A52T, T74S, T76A, S94T, L96Y, L106I
modifications: HSV010-34 heavy chain; HSV010-34 light chain

biological target: glycoprotein B of HSV-1 (gB-1) (Human herpesvirus 1, UniProt P10211); experiment: Luminex multiplex assay, binding to gB-1; settings: Table 3 summary
Procedure: FIGS. 9A and 9B are graphs of median fluorescence intensity (MFI) versus IgG concentration (ng/ml), showing the binding of various recombinant antibodies to gB-1 as measured by Luminex multiplex assay.
BMPC-23 binds HSV-1 gB (gB-1). The gB-1 binding of the antibodies was determined by Luminex multiplex assay. Mixtures of antigen (gB-1)-conjugated microspheres (1,000 counts each) were added to each well of 96-well filter plates (Millipore). After washing with PBS containing 1% BSA, 0.05% Tween 20 and 0.05% NaN3, serially diluted recombinant antibodies (5E7, 19G7, 18G4, 22E10, 3A2, 17G3, 22D10, 32H6, 33B8, 25H7, BMPC-23, and S5V2-29) were added to the plates and incubated for 2 hours at room temperature, with mild agitation of the plates. Samples were diluted in PBS containing 1% cow milk, 1% BSA, 0.05% Tween 20 and 0.05% NaN3. After washing, PE goat anti-mouse IgG was added to the plates and incubated for 1 hour at room temperature with mild agitation. After washing, microspheres were resuspended in PBS containing 1% BSA, 0.05% Tween 20 and 0.05% NaN3 and fluorescent signals from each microsphere were measured in a Bio-Plex® 3D machine.
Finding gB-1 specific HSV antibodies. After Nojima culture (single B-cell culture), HSV-specific antibodies were cloned from germinal center B cells and tested for binding to HSV-1 gB-1 by Luminex multiplex assay as described above. FIGS. 9A and 9B show the gB-1 binding results for 10 antibodies in comparison with BMPC-23. With the exception of BMPC-23, the antibodies in Table 3 were derived from germinal center B cells (lymph nodes) taken 15-17 days after primary vaccination with ΔgD-2. BMPC-23 was derived from bone marrow plasmacytes taken 2 weeks post-boost with ΔgD-2. Nucleotide sequences and amino acid sequences for the heavy-chains and light chains are shown in Table 4, as are the amino acid sequences for the light chain and heavy chain CDR1, CDR2, and CDR3.

Molecule | Target antigens
B1 | gB
B2 | gB
B3 | gB
B4 | gB
B5 | gB
B6 | gB
B7 | gB
B8 | gB
B9 | gB

tested on: HSV-2 G infected cell lysates; experiment: ELISA binding of recombinant antibodies to HSV-2 G infected cell lysates; parameters: species or system HSV-2 G strain; settings: Table 3 summary
Procedure: Binding of recombinant antibodies to HSV-2 G lysates was tested by ELISA. Both heavy and light chain V(D)J rearrangements were amplified from selected single B-cell culture wells (22D10, 32H6, 33B8, and 35H7) by standard RT-PCR. These cloned V(D)J rearrangements were introduced into expression vectors. Recombinant antibodies were obtained by co-transfection of these expression vectors into Expi293F cells. ≥4 mg of purified IgGs was obtained (not shown). […]
Briefly, mice were vaccinated with ΔgD-2 and then 16 days after vaccination, the draining, inguinal lymph nodes were harvested. GC B cells were isolated from these tissues and were cultured in Nojima cultures. Although overall cloning efficiency of GC B cells from these (shipped) tissues was lower than those from freshly isolated tissues (6% vs. 20%), 50 GC clones were obtained that were specific to HSV-2 G strain (HSV-2 G or HSV2-G) lysate. GC B cells from inguinal lymph nodes of mice vaccinated with ΔgD-2 were sorted directly into 96-well plates (1 cell/well). These GC B cells were then cultured in the presence of NB-21.2D9 feeder cells. After culture, presence of IgG was first determined by ELISA, and then the reactivity of culture supernatant IgG against HSV-2 G lysates (HSV-2 G) and uninfected Vero lysates were tested by ELISA.
Based on the obtained V(D)J sequences from each B-cell culture, paired heavy and light chains were re-expressed (as recombinant mouse IgG1 and IgG2c antibodies) in Expi293F cells (Kuraoka et al. Immunity 2016; DiLillo et al. Nature Medicine 2013). […] As expected, all recombinant antibodies reacted specifically with HSV-2 G lysates (FIG. 3). […] Binding of recombinant antibodies to HSV-2 G lysates was tested by ELISA. Both heavy and light chain V(D)J rearrangements were amplified from selected single B-cell culture wells (22D10, 32H6, 33B8, and 35H7) by standard RT-PCR. These cloned V(D)J rearrangements were introduced into expression vectors. Recombinant antibodies were obtained by co-transfection of these expression vectors into Expi293F cells. ≥4 mg of purified IgGs was obtained (not shown). […] These recombinant antibodies (≥4 mg each) were tested for identification of reacting antigen(s), in an in vitro FcγRIV activation assay (Promega FcγRIV ADCC Reporter Bioassay)(FIG. 4), and in vivo protection assay. […]

Molecule | Binding to HSV-lysate
B1 | Yes
B2 | Yes
B3 | Yes
B4 | Yes
B5 | Yes
B6 | Yes
B7 | Yes
B8 | Yes
B9 | Yes

biological target: gB-1 (Human herpesvirus 1, UniProt P10211); experiment: Luminex competition: inhibition of binding of BMPC-23 human IgG to gB-1; parameters: species or system HSV-1; settings: BMPC-23 human IgG 2 ng/ml
Procedure: FIGS. 10A-10G show the capacity of gB-1 specific mouse monoclonal IgG antibodies to inhibit binding of BMPC-23 human IgG antibodies to gB-1.
Finding BMPC-like antibodies. Nine out of 10 gB-1 specific mouse monoclonal IgG antibodies in FIG. 3 were tested for their capacity to inhibit binding of BMPC-23 human IgG antibodies to gB-1. Serially diluted, gB-1 specific mouse monoclonal antibodies or irrelevant, control mouse antibody (H33Lγ1) were incubated with gB-1 conjugated Luminex beads. After incubation, fixed concentration (2 ng/ml) of BMPC-23 human IgG antibodies were added to each well. After washing, mouse anti-human lgG-PE was added to detect binding of human BMPC-23 antibodies. […] Strong inhibition by HSV010-4 (>95% at 222 ng/ml), HSV010-7 (>90% at 222 ng/ml), and HSV010-34 (>80% at 222 ng/ml), shown in FIGS. 10B, 10F, and 10G, respectively, indicates these antibodies bind epitopes on gB-1 closely overlapping with the one recognized by BMPC-23. Therefore, similar protective efficacy as BMPC-23 is expected from these antibodies (experiments in progress). […] Protective efficacy of these antibodies need to be tested (experiments in progress).

Molecule | Inhibition of binding of BMPC-23 human IgG antibodies to gB-1 (in words)
B2 | No inhibition

same assay, conditions: Table 3 summary

Molecule | Competition with BMPC-23
B2 | No
B3 | Strong
B5 | Strong
B6 | Weak
B8 | Weak
B9 | Strong
